Test results from US8629107B2, “Genes and proteins associated with angiogenesis and uses thereof” (National Jewish Health, priority 2005, dated 2014).

Tests used:
[1] = test system: Smad2/3-binding element (SBE); assay: SBE-driven luciferase reporter gene assay in MB114 cells; assay type: cell-based, murine; settings: MAGP-2-expressing vs GFP-expressing MB114 cells; TGF-β1 0-5 ng/ml overnight
Procedure: (§1) The effect putative angiogenic agents had on MB114 cell activities were determined as follows: (i) cell proliferation using a [^3H]thymidine incorporation assay as described (Albig et al, 2006; Albig and Schiemann, 2004; Albig and Schiemann, 2005); (ii) cell invasion through Matrigel matrices using a modified Boyden-chamber assay as described (Albig et al, 2006; Albig and Schiemann, 2004; Albig and Schiemann, 2005); (iii) p38 MAPK phosphorylation using immunoblot analyses as described (Albig et al, 2006; Albig and Schiemann, 2004; Albig and Schiemann, 2005); (iv) angiogenic sprouting in rat tail collagen matrices as described (Albig et al, 2006; Albig and Schiemann, 2004); and (v) Hes1- and SBE-driven luciferase reporter gene assays as described (Albig et al, 2006; Albig and Schiemann, 2004; Albig and Schiemann, 2005).
To further investigate the impact of MAGP-2 on Notch1 processing and NICD accumulation, the inventors took advantage of recent findings showing that the ability of TGF-β to induce Hes1 promoter activity requires Smad3 to interact physically with NICD (Blokzijl et al, 2003), a reaction that is dispensable for canonical Smad3-mediated signaling stimulated by TGF-β (Blokzijl et al, 2003). […]

p38 MAPK = p38 MAPK phosphorylation by immunoblot analyses; assay type: cell-based, murine; settings: serum-starved MB114 cells expressing the transgene; bFGF 50 ng/ml or EGF 10 ng/ml, 0-15 min
Procedure: as §1
The inventors' previous studies have associated stimulation of p38 MAPK activity with angiogenesis of MB114 cells and, conversely, inhibition of p38 MAPK activity with angiostasis of MB114 cells (Albig et al, 2006; Albig and Schiemann, 2004; Albig and Schiemann, 2005). […] The phosphorylation status of p38 MAPK was determined by immunoblotting whole cell lysates with phospho-specific p38 MAPK antibodies (p38-P). Differences in protein loading were monitored by reprobing stripped membranes with anti-p38 MAPK polyclonal antibodies (p38).

B1: MAGP-2: secreted glycoprotein (25 kDa); stably expressed in MB114 cells by bicistronic retroviral transduction, Myc-His tagged (protein)
chain: QRGDDVPETFTDDPNLVNDPSTDDTALADITPSTDDLAGDKNATAECRDEKFACTRLYSVHRPVRQCVHQSCFTSLRRMYIINNEICSRLVCKEHEAMKDELCRQMAGLPPRRLRRSNYFRLPPCENMNLQRPDGL
modifications: left off: small tags and cut ends
notes: secreted glycoprotein (25 kDa); stably expressed in MB114 cells by bicistronic retroviral transduction, Myc-His tagged
TGF-β stimulation of SBE-luciferase activity [1]: no effect | p38 MAPK phosphorylation (p38 MAPK): significantly enhanced
